Read-outs that look alike come from different tables or passages of the source.
Tests used:
[1] = target: E1E2 F627A, ELISA antigen (transfected cell lysate) (hepatitis C virus genotype 1a, strain H77); assay: ELISA
[2] = target: E1E2 I622A, ELISA antigen (transfected cell lysate) (hepatitis C virus genotype 1a, strain H77); assay: ELISA
[3] = target: E1E2 D279A (H77 alanine-scanning library clone) (hepatitis C virus genotype 1a, strain H77); assay: flow cytometry on cells
[4] = target: E1E2 G278A (H77 alanine-scanning library clone) (hepatitis C virus genotype 1a, strain H77); assay: flow cytometry on cells
[5] = target: E1E2 I622A (H77 alanine-scanning library clone) (hepatitis C virus genotype 1a, strain H77); assay: flow cytometry on cells
[6] = target: E1E2 W616A (H77 alanine-scanning library clone) (hepatitis C virus genotype 1a, strain H77); assay: flow cytometry on cells
[7] = target: E1E2 Y276A (H77 alanine-scanning library clone) (hepatitis C virus genotype 1a, strain H77); assay: flow cytometry on cells
[8] = target: E1E2 Y613A (plasmid H77c, no V5 tag) (hepatitis C virus genotype 1a, strain H77); assay: flow cytometry on cells
[9] = target: soluble WT E2c (E2 core domain); assay: ELISA; settings: first point of the titration, dilution 1/1; parent: est. 0.42; read off a plot
[10] = target: CD81-Fc (K124T), a mutant that reduces CD81 dimerization (UniProt P60033); assay: ELISA; settings: first point of the titration, dilution 1/1; parent: est. 0.65; read off a plot
Sequence of CD81-Fc (K124T), a mutant that reduces CD81 dimerization (P60033 whole entry K124T, looked up, tested part not stated): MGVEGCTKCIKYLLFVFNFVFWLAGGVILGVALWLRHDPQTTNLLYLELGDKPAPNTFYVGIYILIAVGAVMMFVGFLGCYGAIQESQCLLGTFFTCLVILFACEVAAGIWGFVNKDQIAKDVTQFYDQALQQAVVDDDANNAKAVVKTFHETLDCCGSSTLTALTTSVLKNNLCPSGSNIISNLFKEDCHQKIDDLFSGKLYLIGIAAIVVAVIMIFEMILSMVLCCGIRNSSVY

HCV1 [11] = assay: ELISA; settings: first point of the titration, dilution 1/100; parent: est. 1.3; read off a plot
[12] = target: recombinant CD81-LEL Fc-fusion protein; assay: ELISA; settings: first point of the titration, dilution 1/1; parent: est. 0.42; read off a plot
AR1A = assay: flow cytometry
AP33 [13] = assay: flow cytometry; settings: read off a plot
AR2A = assay: flow cytometry; settings: read off a plot
AR3A = assay: flow cytometry; settings: read off a plot
HCV1 [14] = assay: flow cytometry; settings: read off a plot
A4 [15] = assay: flow cytometry; settings: read off a plot
AR1B = assay: flow cytometry
A4 [16] = assay: flow cytometry or ELISA; settings: read off a plot
AP33 [17] = assay: flow cytometry or ELISA; settings: read off a plot
HCV1 [18] = assay: flow cytometry or ELISA; settings: read off a plot

How did the enhancement of binding over wild type [1] turn out when “recombinant CD81-LEL Fc-fusion protein (Fc fusion)” was run?
The enhancement of binding over wild type was 13%.

And the enhancement of binding over wild type [2]?
The enhancement of binding over wild type was 56%.

What about the % CD81 binding (of wild type) [3] of the same substance?
The % CD81 binding (of wild type) was 48%.

And the % CD81 binding (of wild type) [4]?
The % CD81 binding (of wild type) was 50%.

What about the enhancement of binding over wild type [5] of the same substance?
Its enhancement of binding over wild type is 49%.

And the % binding activity [6]?
The % binding activity was < 3%.

And the % of wild-type reactivity (% of wild-type reactivity) [6]?
The % of wild-type reactivity (% of wild-type reactivity) was < 25.

And the % CD81 binding (of wild type) [7]?
The % CD81 binding (of wild type) was 50%.

And the % binding activity [8]?
The % binding activity was < 3%.

And the % of wild-type reactivity (% of wild-type reactivity) [8]?
The % of wild-type reactivity (% of wild-type reactivity) was < 25.

How did the response [9] turn out when “recombinant CD81-LEL Fc-fusion protein K124T” was run?
Its response is 0.65 OD450.

With soluble WT E2c (E2 core domain) F627A as the substance, how does the response [10] read?
Its response is 0.62 OD450.

And the response (HCV1 [11])?
Its response is 1.3 OD450.

And the response [12]?
Its response is 0.38 OD450.

How did the response [10] turn out when soluble WT E2c (E2 core domain) I622A was run?
Its response is 1.5 OD450.

What about the response (HCV1 [11]) of the same substance?
Its response is 1.3 OD450.

And the response [12]?
Its response is 1.4 OD450.

Which response [10] does the source give for “soluble WT E2c (E2 core domain) I622A; F627A” here?
Its response is 1.2 OD450.

And the response (HCV1 [11])?
The response was 1.3 OD450.

What about the response [12] of the same substance?
The response was 0.94 OD450.

With “wild-type HCV E1E2 (genotype 1a, strain H77) expression construct with C-terminal V5 epitope tag C503A” as the substance, how does the percent of parent (AR1A; read off a plot) read?
The percent of parent was 200 % of WT.

What does the source list for “wild-type HCV E1E2 (genotype 1a, strain H77) expression construct with C-terminal V5 epitope tag G440A”?
percent of parent (AP33 [13]): 81 % of WT; percent of parent (AR1A; read off a plot): 84 % of WT; percent of parent (AR2A): 82 % of WT; percent of parent (AR3A): 20 % of WT; percent of parent (HCV1 [14]): 84 % of WT

What does the source list for “wild-type HCV E1E2 (genotype 1a, strain H77) expression construct with C-terminal V5 epitope tag G495A”?
percent of parent (AR1A; read off a plot): 26 % of WT; percent of parent (HCV1 [14]): 92 % of WT

How did the percent of parent (A4 [15]) turn out when “wild-type HCV E1E2 (genotype 1a, strain H77) expression construct with C-terminal V5 epitope tag G547A” was run?
Its percent of parent is 74 % of WT.

What about the percent of parent (AR1A; read off a plot) of the same substance?
The percent of parent was 18 % of WT.

What about the percent of parent (AR1B; read off a plot) of the same substance?
Its percent of parent is 22 % of WT.

And the percent of parent (HCV1 [14])?
The percent of parent was 44 % of WT.

For “wild-type HCV E1E2 (genotype 1a, strain H77) expression construct with C-terminal V5 epitope tag L438A”, which percent of parent (AP33 [13]) is on record?
Its percent of parent is 76 % of WT.

And the percent of parent (HCV1 [14])?
Its percent of parent is 75 % of WT.

What does the source list for “wild-type HCV E1E2 (genotype 1a, strain H77) expression construct with C-terminal V5 epitope tag N548A”?
percent of parent (AR1A; read off a plot): 23 % of WT; percent of parent (AR1B): < 0 % of WT

For “wild-type HCV E1E2 (genotype 1a, strain H77) expression construct with C-terminal V5 epitope tag P544A”, which percent of parent (AR1A; read off a plot) is on record?
Its percent of parent is 9 % of WT.

What about the percent of parent (AR1B; read off a plot) of the same substance?
Its percent of parent is 5 % of WT.

What about the percent of parent (HCV1 [14]) of the same substance?
The percent of parent was 45 % of WT.

How did the percent of parent (AR1A; read off a plot) turn out when “wild-type HCV E1E2 (genotype 1a, strain H77) expression construct with C-terminal V5 epitope tag P545A” was run?
The percent of parent was 18 % of WT.

And the percent of parent (AR1B; read off a plot)?
Its percent of parent is 6 % of WT.

What about the percent of parent (HCV1 [14]) of the same substance?
The percent of parent was 92 % of WT.

For “wild-type HCV E1E2 (genotype 1a, strain H77) expression construct with C-terminal V5 epitope tag T518A”, which percent of parent (AP33 [13]) is on record?
Its percent of parent is 106 % of WT.

And the percent of parent (AR1A; read off a plot)?
Its percent of parent is 100 % of WT.

And the percent of parent (AR2A)?
Its percent of parent is 140 % of WT.

And the percent of parent (HCV1 [14])?
The percent of parent was 100 % of WT.

Which results are given for “wild-type HCV E1E2 (genotype 1a, strain H77) expression construct with C-terminal V5 epitope tag W437A”?
percent of parent (AP33 [13]): 77 % of WT; percent of parent (HCV1 [14]): 95 % of WT

“wild-type HCV E1E2 (genotype 1a, strain H77) expression construct with C-terminal V5 epitope tag W549A” was tested. Which percent of parent (AR1A) did it give?
Its percent of parent is < 0 % of WT.

And the percent of parent (AR1B)?
The percent of parent was < 0 % of WT.

How did the percent of parent (AP33 [13]) turn out when “wild-type HCV E1E2 (genotype 1a, strain H77) expression construct with C-terminal V5 epitope tag Y485A” was run?
The percent of parent was 104 % of WT.

What about the percent of parent (AR1A; read off a plot) of the same substance?
Its percent of parent is 43 % of WT.

For “wild-type HCV E1E2 (genotype 1a, strain H77) expression construct with C-terminal V5 epitope tag Y632A”, which percent of parent (AR1A) is on record?
The percent of parent was < 0 % of WT.

With “wild-type HCV E1E2, plasmid H77c (no V5 tag) C272A” as the substance, how does the percent of parent (A4 [16]) read?
Its percent of parent is 93 % of WT.

And the percent of parent (AP33 [17])?
The percent of parent was 85 % of WT.

What about the percent of parent (HCV1 [18]) of the same substance?
Its percent of parent is 98 % of WT.

For “wild-type HCV E1E2, plasmid H77c (no V5 tag) C452A”, which percent of parent (A4 [16]) is on record?
Its percent of parent is 93 % of WT.

And the percent of parent (AP33 [17])?
Its percent of parent is 60 % of WT.

And the percent of parent (HCV1 [18])?
Its percent of parent is 77 % of WT.

What does the source list for “wild-type HCV E1E2, plasmid H77c (no V5 tag) D346A”?
percent of parent (A4 [16]): 95 % of WT; percent of parent (AP33 [17]): 100 % of WT; percent of parent (HCV1 [18]): 98 % of WT

Which results are given for “wild-type HCV E1E2, plasmid H77c (no V5 tag) K562A”?
percent of parent (A4 [16]): 77 % of WT; percent of parent (AP33 [17]): 75 % of WT; percent of parent (HCV1 [18]): 95 % of WT

For “wild-type HCV E1E2, plasmid H77c (no V5 tag) Q336A”, which percent of parent (A4 [16]) is on record?
Its percent of parent is 88 % of WT.

What about the percent of parent (AP33 [17]) of the same substance?
The percent of parent was 80 % of WT.

And the percent of parent (HCV1 [18])?
Its percent of parent is 88 % of WT.

Which results are given for “wild-type HCV E1E2, plasmid H77c (no V5 tag) R237A”?
percent of parent (A4 [16]): 82 % of WT; percent of parent (AP33 [17]): 110 % of WT; percent of parent (HCV1 [18]): 105 % of WT

Which results are given for “wild-type HCV E1E2, plasmid H77c (no V5 tag) T396A”?
percent of parent (A4 [16]): 85 % of WT; percent of parent (AP33 [17]): 68 % of WT; percent of parent (HCV1 [18]): 98 % of WT

How did the percent of parent (A4 [16]) turn out when “wild-type HCV E1E2, plasmid H77c (no V5 tag) W712A” was run?
The percent of parent was 80 % of WT.

What about the percent of parent (AP33 [17]) of the same substance?
Its percent of parent is 81 % of WT.

What about the percent of parent (HCV1 [18]) of the same substance?
The percent of parent was 82 % of WT.

“wild-type HCV E1E2, plasmid H77c (no V5 tag) Y624A” was tested. Which percent of parent (A4 [16]) did it give?
Its percent of parent is 43 % of WT.

And the percent of parent (AP33 [17])?
The percent of parent was 38 % of WT.
